Experimental data published in paper PMC10441475, “Structure of METTL3-METTL14 with an m6A nucleotide reveals insights into m6A conversion and sensing”.

Key:
[1] = target: METTL3 WT;METTL14 R298P (Homo sapiens;Homo sapiens, UniProt Q86U44;Q9HCE5 1-580;1-456, |R298P); assay: SPR; two-state model; FP: 10 mM HEPES pH 7.5, 50 mM KCl, 5 nM RNA; SPR: 10 mM HEPES pH 7.5, 150 mM KCl, 0.05% P20, 25 C; 2-Ap: 50 mM Tris pH 8.0, 10 mM MgCl2, 0.5 uM RNA, read at 37; settings: protein: recombinant;recombinant, tags: His-tag removed by TEV;, copies: 1;1
[2] = target: METTL3 R471H;METTL14 WT (Homo sapiens;Homo sapiens, UniProt Q86U44;Q9HCE5 1-580;1-456, R471H|); assay: as above; settings: protein: recombinant;recombinant, tags: His-tag removed by TEV;, copies: 1;1
[3] = target: T1, METTL3 WT;METTL14 WT (Homo sapiens;Homo sapiens, UniProt Q86U44;Q9HCE5 1-580;1-456, |); assay: SPR; 1:1 model; FP: 10 mM HEPES pH 7.5, 50 mM KCl, 5 nM RNA; SPR: 10 mM HEPES pH 7.5, 150 mM KCl, 0.05% P20, 25 C; 2-Ap: 50 mM Tris pH 8.0, 10 mM MgCl2, 0.5 uM RNA, read at 37; settings: protein: recombinant;recombinant, tags: His-tag removed by TEV;, copies: 1;1
[4] = target: T1, METTL3 WT;METTL14 WT; assay: fluorescence polarization; range given for A-RNA and m6A-RNA together; FP: 10 mM HEPES pH 7.5, 50 mM KCl, 5 nM RNA; SPR: 10 mM HEPES pH 7.5, 150 mM KCl, 0.05% P20, 25 C; 2-Ap: 50 mM Tris pH 8.0, 10 mM MgCl2, 0.5 uM RNA, read at 37; settings: protein: recombinant;recombinant; tags: His-tag removed by TEV;; copies: 1;1; label: 5' fluorescein; predicted bulged stem-loop
[5] = target: T1, METTL3 WT;METTL14 WT; assay: fluorescence polarization; range given for A-RNA and m6A-RNA together; m6A-RNA said to bind more tightly; FP: 10 mM HEPES pH 7.5, 50 mM KCl, 5 nM RNA; SPR: 10 mM HEPES pH 7.5, 150 mM KCl, 0.05% P20, 25 C; 2-Ap: 50 mM Tris pH 8.0, 10 mM MgCl2, 0.5 uM RNA, read at 37; settings: protein: recombinant;recombinant; tags: His-tag removed by TEV;; copies: 1;1; label: 5' fluorescein; predicted bulged stem-loop

Sequence of METTL3 WT;METTL14 R298P (Q86U44 whole entry, chain 1 of 2): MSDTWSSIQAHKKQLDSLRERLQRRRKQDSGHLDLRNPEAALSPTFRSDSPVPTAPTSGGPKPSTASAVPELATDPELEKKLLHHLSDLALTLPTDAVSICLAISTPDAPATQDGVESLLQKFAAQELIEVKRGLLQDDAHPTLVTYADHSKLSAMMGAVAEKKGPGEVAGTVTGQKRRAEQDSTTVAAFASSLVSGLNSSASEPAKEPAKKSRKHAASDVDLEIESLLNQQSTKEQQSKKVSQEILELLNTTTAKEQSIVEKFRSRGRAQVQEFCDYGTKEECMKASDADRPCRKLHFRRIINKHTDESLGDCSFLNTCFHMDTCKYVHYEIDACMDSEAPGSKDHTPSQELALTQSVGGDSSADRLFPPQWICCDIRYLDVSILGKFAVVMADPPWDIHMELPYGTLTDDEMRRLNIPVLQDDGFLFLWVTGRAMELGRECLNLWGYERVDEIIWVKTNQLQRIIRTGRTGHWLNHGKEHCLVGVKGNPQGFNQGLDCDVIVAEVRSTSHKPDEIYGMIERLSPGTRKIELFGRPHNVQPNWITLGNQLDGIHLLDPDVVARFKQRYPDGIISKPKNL
Sequence of METTL3 WT;METTL14 R298P (Q9HCE5 whole entry R298P, chain 2 of 2): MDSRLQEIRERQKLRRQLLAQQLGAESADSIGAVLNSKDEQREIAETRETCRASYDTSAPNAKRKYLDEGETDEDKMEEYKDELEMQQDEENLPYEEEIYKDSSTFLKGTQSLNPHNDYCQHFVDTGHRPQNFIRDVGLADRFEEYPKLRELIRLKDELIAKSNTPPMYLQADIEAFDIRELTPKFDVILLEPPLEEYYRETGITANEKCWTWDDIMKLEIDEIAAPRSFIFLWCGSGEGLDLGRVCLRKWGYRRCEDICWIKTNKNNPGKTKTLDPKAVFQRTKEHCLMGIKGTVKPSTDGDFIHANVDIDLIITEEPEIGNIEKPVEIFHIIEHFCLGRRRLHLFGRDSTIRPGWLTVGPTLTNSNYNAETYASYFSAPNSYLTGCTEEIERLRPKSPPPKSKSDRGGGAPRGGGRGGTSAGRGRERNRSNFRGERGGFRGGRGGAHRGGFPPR
T1 sequence (Q86U44 whole entry, chain 1 of 2): as the sequence (Q86U44 whole entry, chain 1 of 2) above
T1 sequence (Q9HCE5 whole entry, chain 2 of 2): as the sequence (Q9HCE5 whole entry R298P, chain 2 of 2) above, with P298R counted along it
Sequence of METTL3 R471H;METTL14 WT (Q86U44 whole entry R471H, chain 1 of 2): as the sequence (Q86U44 whole entry, chain 1 of 2) above, with R471H counted along it
Sequence of METTL3 R471H;METTL14 WT (Q9HCE5 whole entry, chain 2 of 2): as the sequence (Q9HCE5 whole entry R298P, chain 2 of 2) above, with P298R counted along it

## CUUCGGACUCUGCU (ssRNA) [r6T (biotinyl)]
[1]; linear single strand
  Kd: 2160 nM
[2]; linear single strand
  Kd: 108 nM
[3]; linear single strand
  Kd: 1360 nM

## GCCUAGUAGCAGAGAGGACUGCUCCUUGGU (structured_RNA) [Fl-NEAT2* (A-RNA)]
[4]
  Kd: ~13.4 nM

## CUUCGGACUCUGCU (ssRNA, m6A at position 7) [r6T-m6A (biotinyl)]
[1]; linear single strand
  Kd: 22900 nM
[2]; linear single strand
  Kd: 171 nM
[3]; linear single strand
  Kd: 3120 nM

## GCCUAGUAGCAGAGAGGACUGCUCCUUGGU (structured_RNA) [rNEAT2 (biotinyl)]
[1]; bulged stem-loop
  Kd: 356 nM
[2]; bulged stem-loop
  Kd: 58.8 nM
[3]; bulged stem-loop
  Kd: 256 nM

## GCCUAGUAGCAGAGAGGACUGCUCCUUGGU (structured_RNA, m6A at position 18) [rNEAT2-m6A (biotinyl)]
[1]; bulged stem-loop
  Kd: 538 nM
[2]; bulged stem-loop
  Kd: 62.8 nM
[3]; bulged stem-loop
  Kd: 337 nM

## GCCUAGUAGCAGAGAGGACUGCUCCUUGGU (structured_RNA, m6A at position 18) [Fl-NEAT2*-m6A (m6A-RNA)]
[5]
  Kd: ~13.4 nM
